Experimental data: the supplement of paper PMC11246515
± gives the standard deviation of the averaged measurements.

Assay: total protein half-life in vivo (active degradation + dilution); higher = more stable protein
[1] = wild type E. coli NCM3722, growth: C-lim chemostat, doubling time 12 h
[2] = E. coli NCM3722 delta-clpP delta-lon delta-hslV, growth: N-lim chemostat, doubling time 6 h
[3] = E. coli NCM3722 delta-hslV, growth: N-lim chemostat, doubling time 6 h
[4] = E. coli NCM3722 delta-lon, growth: N-lim chemostat, doubling time 6 h
[5] = E. coli NCM3722 delta-smpB, growth: N-lim chemostat, doubling time 6 h
[6] = wild type E. coli NCM3722, growth: C-lim chemostat, doubling time 3 h
[7] = wild type E. coli NCM3722, growth: C-lim chemostat, doubling time 6 h
[8] = wild type E. coli NCM3722, growth: N-lim chemostat, doubling time 6 h
[9] = wild type E. coli NCM3722, growth: N-lim chemostat, doubling time 12 h
[10] = wild type E. coli NCM3722, growth: P-lim chemostat, doubling time 6 h
[11] = wild type E. coli NCM3722, growth: P-lim chemostat, doubling time 12 h
[12] = E. coli NCM3722 delta-clpP, growth: N-lim chemostat, doubling time 6 h

For “MSTITLLCIALAGVIMLLLLVIKAKVQPFVALLLVSLLVALAAGIPAGEVGKVMIAGMGGVLGSVTIIIGLGAMLGRMIEHSGGAESLANYFSRKLGDKRTIAALTLAAFFLGIPVFFDVGFIILAPIIYGFAKVAKISPLKFGLPVAGIMLTVHVAVPPHPGPVAAAGLLHADIGWLTIIGIAISIPVGVVGYFAAKIINKRQYAMSVEVLEQMQLAPASEEGATKLSDKINPPGVALVTSLIVIPIAIIMAGTVSATLMPPSHPLLGTLQLIGSPMVALMIALVLAFWLLALRRGWSLQHTSDIMGSALPTAAVVILVTGAGGVFGKVLVESGVGKALANMLQMIDLPLLPAAFIISLALRASQGSATVAILTTGGLLSEAVMGLNPIQCVLVTLAACFGGLGASHINDSGFWIVTKYLGLSVADGLKTWTVLTTILGFTGFLITWCVWAVI”, the “total protein half-life in vivo” value [1] was 15.2 h.
For “MDTKKIFKHIPWVILGIIGAFCLAVVALRRGEHISALWIVVASVSVYLVAYRYYSLYIAQKVMKLDPTRATPAVINNDGLNYVPTNRYVLFGHHFAAIAGAGPLVGPVLAAQMGYLPGTLWLLAGVVLAGAVQDFMVLFISSRRNGASLGEMIKEEMGPVPGTIALFGCFLIMIIILAVLALIVVKALAESPWGVFTVCSTVPIALFMGIYMRFIRPGRVGEVSVIGIVLLVASIYFGGVIAHDPYWGPALTFKDTTITFALIGYAFVSALLPVWLILAPRDYLATFLKIGVIVGLALGIVVLNPELKMPAMTQYIDGTGPLWKGALFPFLFITIACGAVSGFHALISSGTTPKLLANETDARFIGYGAMLMESFVAIMALVAASIIEPGLYFAMNTPPAGLGITMPNLHEMGGENAPIIMAQLKDVTAHAAATVSSWGFVISPEQILQTAKDIGEPSVLNRAGGAPTLAVGIAHVFHKVLPMADMGFWYHFGILFEALFILTALDAGTRSGRFMLQDLLGNFIPFLKKTDSLVAGIIGTAGCVGLWGYLLYQGVVDPLGGVKSLWPLFGISNQMLAAVALVLGTVVLIKMKRTQYIWVTVVPAVWLLICTTWALGLKLFSTNPQMEGFFYMASQYKEKIANGTDLTAQQIANMNHIVVNNYTNAGLSILFLIVVYSIIFYGFKTWLAVRNSDKRTDKETPYVPIPEGGVKISSHH”, the “total protein half-life in vivo” value [2] was 5.48 ± 0.6 h, the “total protein half-life in vivo” value [3] was 4.43 h and the “total protein half-life in vivo” value [4] was 4.19 ± 0.26 h. For the same sequence, the “total protein half-life in vivo” value [5] was 5.39 ± 0.18 h, the “total protein half-life in vivo” value [6] was > 4 h and the “total protein half-life in vivo” value [7] was 4.24 h. The “total protein half-life in vivo” value [1] was 6.86 h, the “total protein half-life in vivo” value [8] was 5.42 ± 2.2 h and the “total protein half-life in vivo” value [9] was 9.16 ± 0.46 h. The “total protein half-life in vivo” value [10] was 5.57 ± 0.48 h and the “total protein half-life in vivo” value [11] was 8.62 ± 0.6 h.
In the case of “MIRTMLQGKLHRVKVTHADLHYEGSCAIDQDFLDAAGILENEAIDIWNVTNGKRFSTYAIAAERGSRIISVNGAAAHCASVGDIVIIASFVTMPDEEARTWRPNVAYFEGDNEMKRTAKAIPVQVA [P0A790]”, the “total protein half-life in vivo” value [2] is reported as 4.79 h, the “total protein half-life in vivo” value [3] is reported as 1.54 ± 0.23 h and the “total protein half-life in vivo” value [4] is reported as 6.3 h. The “total protein half-life in vivo” value [5] was 1.43 h, the “total protein half-life in vivo” value [6] was 1.68 ± 0.15 h and the “total protein half-life in vivo” value [7] was 3.1 h. The “total protein half-life in vivo” value [8] was 2.24 h, the “total protein half-life in vivo” value [9] was 2.2 h and the “total protein half-life in vivo” value [10] was 2.12 h. For the same sequence, the “total protein half-life in vivo” value [11] was 4.54 ± 0.65 h.
In the case of “MAKIKGQVKWFNESKGFGFITPADGSKDVFVHFSAIQGNGFKTLAEGQNVEFEIQDGQKGPAAVNVTAI [P0A9Y6]”, the “total protein half-life in vivo” value [2] is reported as 4.07 ± 0.35 h, the “total protein half-life in vivo” value [12] is reported as 3.26 ± 0.19 h and the “total protein half-life in vivo” value [3] is reported as 2.88 ± 0.095 h. For the same sequence, the “total protein half-life in vivo” value [4] was 3.98 ± 0.54 h, the “total protein half-life in vivo” value [5] was 2.65 ± 0.03 h and the “total protein half-life in vivo” value [6] was 2.24 ± 0.71 h. For the same sequence, the “total protein half-life in vivo” value [7] was 3.23 ± 0.29 h, the “total protein half-life in vivo” value [1] was 5.61 ± 1.2 h and the “total protein half-life in vivo” value [8] was 2.83 ± 0.21 h. For the same sequence, the “total protein half-life in vivo” value [9] was 3.96 ± 0.13 h, the “total protein half-life in vivo” value [10] was 2.94 ± 0.28 h and the “total protein half-life in vivo” value [11] was 5 ± 1.2 h.
With “MKIDLNADLGEGCASDAELLTLVSSANIACGFHAGDAQIMQACVREAIKNGVAIGAHPSFPDRENFGRSAMQLPPETVYAQTLYQIGALATIARAQGGVMRHVKPHGMLYNQAAKEAQLADAIARAVYACDPALILVGLAGSELIRAGKQYGLTTREEVFADRGYQADGSLVPRSQSGALIENEEQALAQTLEMVQHGRVKSITGEWATVAAQTVCLHGDGEHALAFARRLRSAFAEKGIVVAA” the “total protein half-life in vivo” value [2] was 5 ± 0.5 h, the “total protein half-life in vivo” value [3] was 3.66 h and the “total protein half-life in vivo” value [4] was 5.55 ± 2 h. For the same sequence, the “total protein half-life in vivo” value [5] was 3.12 ± 0.19 h, the “total protein half-life in vivo” value [6] was 2.4 ± 0.35 h and the “total protein half-life in vivo” value [1] was 7.69 ± 0.61 h. The “total protein half-life in vivo” value [8] was 3.911 ± 0.035 h, the “total protein half-life in vivo” value [9] was 5.79 ± 0.9 h and the “total protein half-life in vivo” value [10] was 4.55 ± 0.18 h. The “total protein half-life in vivo” value [11] was 7.81 ± 1.7 h.
With “MKSNRQARHILGLDHKISNQRKIVTEGDKSSVVNNPTGRKRPAEK” the “total protein half-life in vivo” value [2] was 1.25 ± 0.066 h, the “total protein half-life in vivo” value [12] was 0.873 h and the “total protein half-life in vivo” value [3] was 1.04 ± 0.075 h. The “total protein half-life in vivo” value [4] was 1.37 ± 0.39 h, the “total protein half-life in vivo” value [5] was 0.657 h and the “total protein half-life in vivo” value [6] was 1.64 ± 0.16 h. For the same sequence, the “total protein half-life in vivo” value [7] was 1.85 h, the “total protein half-life in vivo” value [1] was 1.81 ± 0.55 h and the “total protein half-life in vivo” value [8] was 1.08 h. The “total protein half-life in vivo” value [9] was 1.74 ± 0.51 h, the “total protein half-life in vivo” value [10] was 0.899 ± 0.2 h and the “total protein half-life in vivo” value [11] was 1.34 ± 0.98 h.
With “MRILHTSDWHLGQNFYSKSREAEHQAFLDWLLETAQTHQVDAIIVAGDVFDTGSPPSYARTLYNRFVVNLQQTGCHLVVLAGNHDSVATLNESRDIMAFLNTTVVASAGHAPQILPRRDGTPGAVLCPIPFLRPRDIITSQAGLNGIEKQQHLLAAITDYYQQHYADACKLRGDQPLPIIATGHLTTVGASKSDAVRDIYIGTLDAFPAQNFPPADYIALGHIHRAQIIGGMEHVRYCGSPIPLSFDECGKSKYVHLVTFSNGKLESVENLNVPVTQPMAVLKGDLASITAQLEQWRDVSQEPPVWLDIEITTDEYLHDIQRKIQALTESLPVEVLLVRRSREQRERVLASQQRETLSELSVEEVFNRRLALEELDESQQQRLQHLFTTTLHTLAGEHEA [P0AG76]” the “total protein half-life in vivo” value [2] was 5.77 ± 0.37 h, the “total protein half-life in vivo” value [12] was 4.79 ± 1.6 h and the “total protein half-life in vivo” value [3] was 4.67 ± 0.67 h. The “total protein half-life in vivo” value [4] was 4.54 ± 0.071 h, the “total protein half-life in vivo” value [5] was 4.5 ± 0.46 h and the “total protein half-life in vivo” value [6] was 2.6 ± 0.049 h. The “total protein half-life in vivo” value [7] was 5.4 ± 0.27 h, the “total protein half-life in vivo” value [1] was 9.11 ± 1.4 h and the “total protein half-life in vivo” value [8] was 4.54 ± 0.17 h. The “total protein half-life in vivo” value [9] was 7.66 ± 0.56 h, the “total protein half-life in vivo” value [10] was 5.46 ± 0.31 h and the “total protein half-life in vivo” value [11] was 7.9 ± 0.1 h.
With “MDAKQTRQGVLLALAAYFIWGIAPAYFKLIYYVPADEILTHRVIWSFFFMVVLMSICRQWSYLKTLIQTPQKIFMLAVSAVLIGGNWLLFIWAVNNHHMLEASLGYFINPLVNIVLGMIFLGERFRRMQWLAVILAICGVLVQLWTFGSLPIIALGLAFSFAFYGLVRKKIAVEAQTGMLIETMWLLPVAAIYLFAIADSSTSHMGQNPMSLNLLLIAAGIVTTVPLLCFTAAATRLRLSTLGFFQYIGPTLMFLLAVTFYGEKPGADKMVTFAFIWVALAIFVMDAIYTQRRTSK” the “total protein half-life in vivo” value [9] was 7.87 h.
With “MNDLFSLAGKNILITGSAQGIGFLLATGLGKYGAQIIINDITAERAELAVEKLHQEGIQAVAAPFNVTHKHEIDAAVEHIEKDIGPIDVLVNNAGIQRRHPFTEFPEQEWNDVIAVNQTAVFLVSQAVTRHMVERKAGKVINICSMQSELGRDTITPYAASKGAVKMLTRGMCVELARHNIQVNGIAPGYFKTEMTKALVEDEAFTAWLCKRTPAARWGDPQELIGAAVFLSSKASDFVNGHLLFVDGGMLVAV [P0A9P9]” the “total protein half-life in vivo” value [2] was 7.23 h, the “total protein half-life in vivo” value [12] was 3.69 h and the “total protein half-life in vivo” value [3] was 2.75 h. For the same sequence, the “total protein half-life in vivo” value [5] was 2.46 h, the “total protein half-life in vivo” value [6] was 2.53 ± 0.38 h and the “total protein half-life in vivo” value [7] was 4.78 ± 0.49 h. The “total protein half-life in vivo” value [1] was 7.912 ± 0.017 h, the “total protein half-life in vivo” value [8] was 3.01 h and the “total protein half-life in vivo” value [10] was 4.98 ± 0.91 h. The “total protein half-life in vivo” value [11] was 6.82 ± 0.6 h.
For “MKNNPLISIYMPTWNRQQLAIRAIKSVLRQDYSNWEMIIVDDCSTSWEQLQQYVTALNDPRITYIHNDINSGACAVRNQAIMLAQGEYITGIDDDDEWTPNRLSVFLAHKQQLVTHAFLYANDYVCQGEVYSQPASLPLYPKSPYSRRLFYKRNIIGNQVFTWAWRFKECLFDTELKAAQDYDIFLRMVVEYGEPWKVEEATQILHINHGEMQITSSPKKFSGYFHFYRKHKDKFDRASKKYQLFTLYQIRNKRMTWRTLLTLLSVRNGKRLADGIRGR”, the “total protein half-life in vivo” value [2] was 3.18 h, the “total protein half-life in vivo” value [4] was 2.71 ± 0.069 h and the “total protein half-life in vivo” value [5] was 1.7 ± 0.1 h.
For “MSQAKSNKMGVVQLTILTMVNMMGSGIIMLPTKLAEVGTISIISWLVTAVGSMALAWAFAKCGMFSRKSGGMGGYAEYAFGKSGNFMANYTYGVSLLIANVAIAISAVGYGTELLGASLSPVQIGLATIGVLWICTVANFGGARITGQISSITVWGVIIPVVGLCIIGWFWFSPTLYVDSWNPHHAPFFSAVGSSIAMTLWAFLGLESACANTDVVENPERNVPIAVLGGTLGAAVIYIVSTNVIAGIVPNMELANSTAPFGLAFAQMFTPEVGKVIMALMVMSCCGSLLGWQFTIAQVFKSSSDEGYFPKIFSRVTKVDAPVQGMLTIVIIQSGLALMTISPSLNSQFNVLVNLAVVTNIIPYILSMAALVIIQKVANVPPSKAKVANFVAFVGAMYSFYALYSSGEEAMLYGSIVTFLGWTLYGLVSPRFELKNKHG [P0AAF1]”, the “total protein half-life in vivo” value [2] was 6.73 ± 1.1 h, the “total protein half-life in vivo” value [5] was 5.34 ± 1 h and the “total protein half-life in vivo” value [7] was > 8 h. The “total protein half-life in vivo” value [1] was > 16 h, the “total protein half-life in vivo” value [8] was 4.53 h and the “total protein half-life in vivo” value [9] was > 16 h.
